# Experimental data taken from patent US20210196796A1 (SYNTHEKINE, published 2021).
# Changes are numbered by the printed parent chain. In names and notes the source's numbering stands.
# B1: SQVLIA (ligand)
# chain: APTSSSTKKTQLQLSQLLVLLIAILNGINNYKNPKLTRMLTFKFYMPKKATELKHLQCLEEELKPLEEVLNLAQSKNFHLRPRDLISNINVIVLELKGSETTFMCEYADETATIVEFLNRWITFCQSIISTLT
# B2: SQVLYA, E116G (ligand)
# chain: B1 chain with I22Y
# B3: SQVLHA (ligand)
# chain: B1 chain with I22H
# B4: SQVLRA (ligand)
# chain: B1 chain with I22R
# B5: SQVLNA (ligand)
# chain: B1 chain with I22N
# Target: T1, orthogonal hCD122 receptor (hoRb), hCD122 with H133D and Y134F (human, UniProt P14784 27-550)
# T1 sequence: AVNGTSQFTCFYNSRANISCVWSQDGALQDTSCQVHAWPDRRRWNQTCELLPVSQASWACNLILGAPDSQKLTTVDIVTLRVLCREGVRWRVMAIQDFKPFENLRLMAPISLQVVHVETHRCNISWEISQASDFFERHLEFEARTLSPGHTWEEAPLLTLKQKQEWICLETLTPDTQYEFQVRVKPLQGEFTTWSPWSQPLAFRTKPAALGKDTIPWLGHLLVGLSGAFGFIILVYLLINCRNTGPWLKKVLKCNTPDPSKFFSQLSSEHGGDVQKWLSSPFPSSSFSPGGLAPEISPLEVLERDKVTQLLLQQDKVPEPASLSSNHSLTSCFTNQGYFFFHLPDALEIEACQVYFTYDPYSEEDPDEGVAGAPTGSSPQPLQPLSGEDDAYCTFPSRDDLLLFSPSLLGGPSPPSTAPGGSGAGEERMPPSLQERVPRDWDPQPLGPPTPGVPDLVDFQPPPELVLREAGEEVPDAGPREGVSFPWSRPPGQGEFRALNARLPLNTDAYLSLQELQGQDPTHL
# Assay: cell-based or functional assay
# Wherever Relative Proliferation Fold Change 3F8 1:10 is given: reference of the scale not given here.
# Wherever Relative Proliferation Fold Change 3F8 1:2 is given: reference of the scale not given here.
# Wherever Relative Proliferation Fold Change 3F8 1:50 is given: reference of the scale not given here.
# Wherever Relative Proliferation Fold Change NKL 1:10 is given: reference of the scale not given here.
# Wherever Relative Proliferation Fold Change NKL 1:2 is given: reference of the scale not given here.
# Wherever Relative Proliferation Fold Change NKL 1:50 is given: reference of the scale not given here.
Binder,3F8 Ortho Proliferation Signal 1:2 [cts/min],3F8 Ortho Proliferation Signal 1:10 [cts/min],3F8 Ortho Proliferation Signal 1:50 [cts/min],Relative Proliferation Fold Change 3F8 1:2 [fold],Relative Proliferation Fold Change 3F8 1:10 [fold],Relative Proliferation Fold Change 3F8 1:50 [fold]
B1,18600,10500,3500,0.45,1.2,0.77
B2,12500,8030,2510,29.7,9.79,2.73
B3,32600,35100,19100,80.2,56.4,25.8
B4,33400,32300,19600,43,38.8,30.2
B5,32600,35100,19100,80.2,56.4,25.8

# Target: T1, orthogonal hCD122 receptor (hoRb), …
# Assay: cell-based or functional assay
# Remark: another data set of the same source
Binder,NKL Ortho Proliferation Signal 1:2,NKL Ortho Proliferation Signal 1:10,NKL Ortho Proliferation Signal 1:50,Relative Proliferation Fold Change NKL 1:2 [fold],Relative Proliferation Fold Change NKL 1:10 [fold],Relative Proliferation Fold Change NKL 1:50 [fold]
B1,13000,10700,6780,1.11,0.78,0.53
B2,13200,11600,8390,1.21,0.83,0.63
B3,53000,26000,13300,3.46,1.63,0.87
B4,60800,68400,34300,4.33,4.06,2.28
B5,50600,36500,17300,4.55,3,1.4
